The target of test [1] is CFP:MtRH10 (Medicago truncatula). The test can be described thus: FRET or BRET. For orientation: BRET reads energy transfer from a luciferase to a nearby fluorophore.
The target in test [2] is RPL7:CFP (Medicago truncatula). The test can be described thus: FRET or BRET.

As to AeSSP1256:YFP (natural protein), the mean CFP lifetime of the donor with the acceptor (2.86 ns +/- 0.02 without) in test [1] turned out to be 2.53 ns. Further, in test [2], the mean CFP lifetime of the donor with the acceptor (2.83 ns +/- 0.03 without) came to 2.46 ns.

The values are drawn from article doi:10.1101/2020.06.17.157404.
